For test [1], the target named is GST-Dpb11-wild-type (budding yeast) (UniProt P47027). In words: pull-down; GST-Dpb11 pull-down of CDK-phosphorylated RPA with single-stranded DNA substituted for bubble-shaped DNA; data not shown.
For test [2], the target named is GST-Dpb11-m1,2,3,5,ΔC (budding yeast) (UniProt P47027). Description: pull-down; as the GST pull-down without DNA, but in the presence of 10 pmol bubble-shaped DNA; 10 pmol GST-Dpb11, 32P-labelled RPA; 25°C 1 h, glutathione Sepharose.
The target of test [3] is GST-Dpb11-wild-type (budding yeast) (UniProt P47027). The description is as above.
The target of test [4] is GST-Dpb11-m1,2,3,5,ΔC (budding yeast) (UniProt P47027). In words: pull-down; 10 pmol GST-tagged Dpb11 with 32P-labelled protein, no DNA; GST-binding buffer (40 mM Tris-HCl pH 7.5, 100 mM NaCl, 0.1 mM EDTA, 10% glycerol, 0.1% Triton X-100, 1 mM DTT, 0.1 mg/ml BSA), 25°C 1 h; glutathione Sepharose, two washes; SDS-PAGE and phosphorimaging.
The target in test [5] is GST-Dpb11-wild-type (budding yeast) (UniProt P47027). The test is described as above.
For test [6], the target named is Mcm2-7 complex with a PKA tag at the N-terminus of Mcm2 [modified: 32P-phosphate on the PKA tag; 32P-phosphate on the PKA tag] [budding yeast]. Description: GST pull-down, phosphorimaging. The note with it: 10 pmoles GST-Dpb11, read off a plot.

This is an account of results in paper PMC5415106.

Chain of GST-Dpb11-wild-type (budding yeast) (P47027 whole entry): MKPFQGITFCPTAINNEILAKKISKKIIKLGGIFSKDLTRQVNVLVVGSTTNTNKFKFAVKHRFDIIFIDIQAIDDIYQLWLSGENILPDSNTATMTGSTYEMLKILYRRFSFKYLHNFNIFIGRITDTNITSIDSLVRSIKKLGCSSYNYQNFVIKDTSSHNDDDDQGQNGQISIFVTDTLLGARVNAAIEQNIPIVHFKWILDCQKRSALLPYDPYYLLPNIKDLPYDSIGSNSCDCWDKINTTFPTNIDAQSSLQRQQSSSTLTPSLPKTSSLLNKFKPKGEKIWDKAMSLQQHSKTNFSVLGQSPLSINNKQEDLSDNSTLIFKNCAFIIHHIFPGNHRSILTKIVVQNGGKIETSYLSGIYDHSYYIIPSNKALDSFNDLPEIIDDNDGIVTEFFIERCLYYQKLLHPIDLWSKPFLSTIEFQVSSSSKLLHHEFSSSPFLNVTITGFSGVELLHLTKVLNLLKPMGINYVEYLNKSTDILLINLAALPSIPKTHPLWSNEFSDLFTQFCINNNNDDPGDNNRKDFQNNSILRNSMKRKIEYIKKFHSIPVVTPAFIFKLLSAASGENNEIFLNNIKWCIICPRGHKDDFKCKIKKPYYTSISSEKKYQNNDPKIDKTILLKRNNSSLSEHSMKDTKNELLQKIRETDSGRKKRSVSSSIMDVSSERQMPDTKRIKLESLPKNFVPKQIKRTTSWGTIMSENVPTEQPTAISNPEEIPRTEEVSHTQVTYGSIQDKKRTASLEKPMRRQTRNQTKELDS
Chain of GST-Dpb11-m1,2,3,5,ΔC (budding yeast) (P47027 1-615 K463E/K469E/R538E/K549E): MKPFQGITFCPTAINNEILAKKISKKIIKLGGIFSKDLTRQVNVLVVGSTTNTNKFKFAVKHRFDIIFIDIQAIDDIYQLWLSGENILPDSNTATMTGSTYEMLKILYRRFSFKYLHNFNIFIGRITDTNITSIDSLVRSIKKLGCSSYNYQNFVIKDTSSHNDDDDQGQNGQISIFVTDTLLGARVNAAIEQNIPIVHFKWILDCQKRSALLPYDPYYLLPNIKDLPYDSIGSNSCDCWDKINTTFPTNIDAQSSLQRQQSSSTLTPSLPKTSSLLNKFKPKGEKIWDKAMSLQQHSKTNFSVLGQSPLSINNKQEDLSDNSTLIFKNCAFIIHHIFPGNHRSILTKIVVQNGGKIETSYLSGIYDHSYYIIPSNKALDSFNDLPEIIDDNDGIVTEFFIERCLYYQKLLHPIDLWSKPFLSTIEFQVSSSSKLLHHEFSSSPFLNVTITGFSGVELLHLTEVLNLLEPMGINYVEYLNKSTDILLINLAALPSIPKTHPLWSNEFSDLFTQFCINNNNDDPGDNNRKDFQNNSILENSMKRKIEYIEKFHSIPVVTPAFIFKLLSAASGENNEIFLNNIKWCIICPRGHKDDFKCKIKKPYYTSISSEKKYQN

As to “CDK-phosphorylated RPA (PKA-tagged on Rfa1) (from UniProt P22336 1-621) (complex)”, the percent pulled down in test [1] was determined as 50%; in test [2] it was 15%; in test [3], 50%; in test [4], 15%; in test [5] it was 15%.
Consider “GST-Dpb11-wild-type mutant K463E; K469E; R538E; K549E [budding yeast] / Mcm2-7 complex with a PKA tag at the N-terminus of Mcm2 [modified: 32P-phosphate on the PKA tag; 32P-phosphate on the PKA tag] [budding yeast] chain 1 K463E, chain 1 K469E, chain 1 R538E, chain 1 K549E”, for which the response came to 0.25 pmol in test [6] (1 pmole Mcm2-7 input, parent: 0.26); 0.55 pmol in test [6] (3 pmoles Mcm2-7 input, parent: 0.55); 1.3 pmol in test [6] (10 pmoles Mcm2-7 input, parent: 1.3).
As for “PKA-RPA (not phosphorylated by CDK) (from UniProt P22336 1-621) (complex)”, the percent pulled down in test [3] and in test [5] was 15% in each case.
